Where a chain is given by its changes, count along the chain named. Values joined by “and” are separate entries in the source; they are usually repeats but may differ in a detail not shown here. Equal entries are not always repeated.
T1: L-TGF-β3/GARP (purified complex of latent TGF-β3 with the GARP ectodomain) (human, UniProt Q14392 20-627)
T1 chain 1: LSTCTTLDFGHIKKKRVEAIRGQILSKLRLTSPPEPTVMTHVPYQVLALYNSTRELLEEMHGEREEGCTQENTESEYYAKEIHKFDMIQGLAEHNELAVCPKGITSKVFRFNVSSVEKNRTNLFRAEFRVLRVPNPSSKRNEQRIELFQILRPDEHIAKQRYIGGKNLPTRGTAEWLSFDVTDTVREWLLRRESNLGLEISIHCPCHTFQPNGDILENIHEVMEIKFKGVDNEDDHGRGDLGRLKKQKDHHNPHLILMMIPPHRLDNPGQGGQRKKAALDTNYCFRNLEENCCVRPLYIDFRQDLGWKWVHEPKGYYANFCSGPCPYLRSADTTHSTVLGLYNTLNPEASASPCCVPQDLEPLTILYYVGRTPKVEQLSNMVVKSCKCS
T1 chain 2: T1 chain 1 with D240E
T1 chain 3: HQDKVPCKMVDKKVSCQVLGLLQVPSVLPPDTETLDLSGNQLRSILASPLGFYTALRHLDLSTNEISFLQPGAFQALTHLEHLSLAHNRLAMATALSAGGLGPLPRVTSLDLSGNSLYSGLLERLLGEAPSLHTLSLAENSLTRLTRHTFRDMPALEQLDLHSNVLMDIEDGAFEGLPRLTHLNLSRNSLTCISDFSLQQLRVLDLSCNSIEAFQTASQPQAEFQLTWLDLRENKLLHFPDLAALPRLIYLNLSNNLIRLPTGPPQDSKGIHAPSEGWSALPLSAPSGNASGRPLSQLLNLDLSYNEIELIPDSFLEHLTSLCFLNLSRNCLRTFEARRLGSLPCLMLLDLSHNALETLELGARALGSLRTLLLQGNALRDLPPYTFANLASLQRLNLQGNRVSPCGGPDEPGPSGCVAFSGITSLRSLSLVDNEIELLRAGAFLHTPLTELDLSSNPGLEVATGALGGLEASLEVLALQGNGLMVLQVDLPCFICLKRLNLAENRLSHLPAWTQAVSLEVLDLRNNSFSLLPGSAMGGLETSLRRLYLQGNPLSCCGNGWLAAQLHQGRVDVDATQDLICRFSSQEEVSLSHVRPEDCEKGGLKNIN

B1: secreted ectodomain of αvβ8 integrin (receptor)
chain 1: FNLDVDSPAEYSGPEGSYFGFAVDFFVPSASSRMFLLVGAPKANTTQPGIVEGGQVLKCDWSSTRRCQPIEFDATGNRDYAKDDPLEFKSHQWFGASVRSKQDKILACAPLYHWRTEMKQEREPVGTCFLQDGTKTVEYAPCRSQDIDADGQGFCQGGFSIDFTKADRVLLGGPGSFYWQGQLISDQVAEIVSKYDPNVYSIKYNNQLATRTAQAIFDDSYLGYSVAVGDFNGDGIDDFVSGVPRAARTLGMVYIYDGKNMSSLYNFTGEQMAAYFGFSVAATDINGDDYADVFIGAPLFMDRGSDGKLQEVGQVSVSLQRASGDFQTTKLNGFEVFARFGSAIAPLGDLDQDGFNDIAIAAPYGGEDKKGIVYIFNGRSTGLNAVPSQILEGQWAARSMPPSFGYSMKGATDIDKNGYPDLIVGAFGVDRAILYRARPVITVNAGLEVYPSILNQDNKTCSLPGTALKVSCFNVRFCLKADGKGVLPRKLNFQVELLLDKLKQKGAIRRALFLYSRSPSHSKNMTISRGGLMQCEELIAYLRDESEFRDKLTPITIFMEYRLDYRTAADTTGLQPILNQFTPANISRQAHILLDCGEDNVCKPKLEVSVDSDQKKIYIGDDNPLTLIVKAQNQGEGAYEAELIVSIPLQADFIGVVRNNEALARLSCAFKTENQTRQVVCDLGNPMKAGTQLLAGLRFSVHQQSEMDTSVKFDLQIQSSNLFDKVSPVVSHKVDLAVLAAVEIRGVSSPDHVFLPIPNWEHKENPETEEDVGPVVQHIYELRNNGPSSFSKAMLHLQWPYKYNNNTLLYILHYDIDGPMNCTSDMEINPLRIKISSLQTTEKNDTVAGQGERDHLITKRDLALSEGDIHTLGCGVAQCLKIVCQVGRLDRGKSAILYVKSLLWTETFMNKENQNHSYSLKSSASFNVIEFPYKNLPIEDITNSTLVTTNVTWGIQPAPMPV
chain 2: EDNRCASSNAASCARCLALGPECGWCVQEDFISGGSRSERCDIVSNLISKGCSVDSIEYPSVHVIIPTENEINTQVTPGEVSIQLRPGAEANFMLKVHPLKKYPVDLYYLVDVSASMHNNIEKLNSVGNDLSRKMAFFSRDFRLGFGSYVDKTVSPYISIHPERIHNQCSDYNLDCMPPHGYIHVLSLTENITEFEKAVHRQKISGNIDTPEGGFDAMLQAAVCESHIGWRKEAKRLLLVMTDQTSHLALDSKLAGIVVPNDGNCHLKNNVYVKSTTMEHPSLGQLSEKLIDNNINVIFAVQGKQFHWYKDLLPLLPGTIAGEIESKAANLNNLVVEAYQKLISEVKVQVENQVQGIYFNITAICPDGSRKPGMEGCRNVTSNDEVLFNVTVTMKKCDVTGGKNYAIIKPIGFNETAKIHIHRNCSCQCEDNRGPKGKCVDETFLDSKCFQCDENKCHFDEDQFSSESCKSHKDQPVCSGRGVCVCGKCSCHKIKLGKVYGKYCEKDDFSCPYHHGNLCAGHGECEAGRCQCFSGWEGDRCQCPSAAAQHCVNSKGQVCSGRGTCVCGRCECTDPRSIGRFCEHCPTCYTACKENWNCMQCLHPHNLSQAILDQCKTSCALMEQQHYVDQTSECFSSPSYLR
notes: integrin αv, truncated (αvtr pcDM8), secreted ectodomain; integrin β8, truncated (β8tr), secreted ectodomain; also called αvβ8tr; truncated αvβ8 ectodomain; source: ExpiCHO, transfected, purified from supernatant (Protein G crosslinked with antibody 8B8, SEC on Superose 6)

Legend:
[1] = target: L-TGF-β1 (latent TGF-β1 dimer, R249A, as it stands in L-TGF-β1/GARP) (human); assay: cryo-EM structure; purified L-TGF-β1/GARP or L-TGF-β3/GARP alone, 0.3 mg/ml
[2] = target: T1, L-TGF-β3/GARP (purified complex of …); assay: mass photometry; L-TGF-β3/GARP with αvβ8; TBS with 1 mM CaCl2, 1 mM MgCl2; conditions: both partners purified
[3] = target: L-TGF-β1/GARP (secreted complex of latent TGF-β1 with the GARP ectodomain) (human) (UniProt Q14392); assay: mass photometry + cryo-EM structure; L-TGF-β1/GARP mixed with recombinant αvβ8 ectodomain at 1:1 molar ratio; mass photometry in TBS with 1 mM CaCl2, 1 mM MgCl2

Molecule | stoichiometry N [1] | stoichiometry N [2] | stoichiometry N [3]
L-TGF-β1 (latent TGF-β1 dimer, R249A, as it stands in L-TGF-β1/GARP) (natural protein) | 2 |  | 
B1 |  | 1 and 2 | 1 and 2
